Results from patent US20090215115A1, “SIALYLTR[…] SEQUENCE MOTIFS” (National Research Council of Canada, priority 2004, published 2009).

B1: Cst-I O:19: α-2,3-sialyltransferase Cst-I from Campylobacter jejuni strain O:19, amino acid sequence of FIG. 3, SEQ ID NO:8 (protein, listed as Campylobacter jejuni)
chain: MTRTRMENELIVSKNMQNIIIAGNGPSLKNINYKRLPREYDVFRCNQFYFEDKYYLGKKIKAVFFNPGVFLQQYHTAKQLILKNEYEIKNIFCSTFNLPFIESNDFLHQFYNFFPDAKLGYEVIENLKEFYAYIKYNEIYFNKRITSGVYMCAIAIALGYKTIYLCGIDFYEGDVIYPFEAMSTNIKTIFPGIKDFKPSNCHSKEYDIEALKLLKSIYKVNIYALCDDSILANHFPLSININNNFTLENKHNNSINDILLTDNTPGVSFYKNQLKADNKIMLNFYNILHSKDTLIKFLNKEIAVLKKQTTQRAKARIQNHLSYKLGQALIINSKSVLGFLSLPFIILSIVISHKQEQKAYKFKVKKNPNLALPPLETYPDYNEALKEKECFTYKLGEEFIKAGKNWYGEGYIKFIFKDVPRLKREFEKGE
modifications: sialyltransferase polypeptide sequence from strain O19
B2: Cst-I O:36: α-2,3-sialyltransferase Cst-I from Campylobacter jejuni strain O:36, amino acid sequence of FIG. 2, SEQ ID NO:6 (protein, listed as Campylobacter jejuni)
chain: MTRTRMENELIVSKNMQNIIIAGNGPSLKNINYKRLPREYDVFRCNQFYFEDKYYLGKKIKAVFFNPGVFLQQYHTAKQLILKNEYEIKNIFCSTFNLSFIESNDFLHQFYNFFPDAKLGYEVIENLKEFYAYIKYNEIYFNKRITSGVYMCAIAIALGYKTIYLCGIDFYEGDVIYPFEAMSTNIKTIFPGIKDFKPSNCHSKEYDIEALKLLKSIYKVNIYALCDDSILANHFPLSININNNFTLENKHNNSINDILLTDNTPGVSFYKNQLKADNKIMLDFYNILHSKDNLIKFLNKEIAVLKKQTTQRAKTRIQNHLSYKLGQALIINSKSVLGYLSLPFIILSIVISHKQEQKAYKFKVKKNPNLALPPLETYPDYKEALKEKECFTYKLGEEFIKASKNWYGGGYIKFYFKDVSRLKREIKEK
modifications: sialyltransferase polypeptide sequence from strain O36

Test: α-2,3-sialyltransferase activity assay with capillary electrophoresis detection
Format: biochemical
Conditions: lysates of E. coli expressing the Cst-I protein; for sialyltransferase activity: acceptor 1 mM Lac-FCHASE, donor 0.2 mM CMP-Neu5Ac, 37° C., pH 7
Method: Assays. Protein concentration was determined using the bicinchoninic acid protein assay kit (Pierce, Rockford, Ill.). For all of the enzymatic assays, one unit of activity was defined as the amount of enzyme that generated one […] of product per minute. FCHASE-labelled oligosaccharides are prepared as described in Gilbert et al. (1997) Eur. J. Biochem. 249: 187-194. p-Nitrophenol-glycosides (p-NP-glycosides) were obtained from Sigma-Aldrich.
The -2,3-sialyltransferase activity was assayed at 37° C. using 1 mM Lac-FCHASE (6-(5-fluorescein-carboxamido)-hexanoic acid succimidyl ester), 0.2 mM CMP-Neu5Ac, 50 mM MOPS pH 7, 10 mM MnCl2 and 10 mM MgCl2 in a final volume of 10 μL. After 5 min the reaction mixtures with fluorogenic acceptors were diluted with 10 mM NaOH and analyzed by capillary electrophoresis performed using the separation conditions as described previously (Gilbert et al. (1997) supra.).

Row | Molecule | transfer of Neu5Ac from CMP-Neu5Ac to an acceptor | sialyltransferase activity
1 | B1 | catalyze the transfer of Neu5Ac from CMP-Neu5Ac to an acceptor | 324.9 mU/ml
2 | B2 | catalyze the transfer of Neu5Ac from CMP-Neu5Ac to an acceptor | 50.3 mU/ml
